In PMC6633205, “Cus2 enforces the first ATP-dependent step of splicing by binding to yeast SF3b1 through a UHM–ULM interaction” (RNA, 2019):
Positions count from the first letter of the chain named. Names and notes keep the numbering of the source. Values belong to the molecule of their own block, whether it stands above or below them.

Experiments:
[1] = target: SF3b1 ULM5 (Homo sapiens) (UniProt O75533); conditions: cited from earlier work
Tat-SF1 (residues 1-360) [2] = target: T1, Tat-SF1 (residues 1-360) (human, UniProt O43719 1-360); assay: ITC
T1 chain: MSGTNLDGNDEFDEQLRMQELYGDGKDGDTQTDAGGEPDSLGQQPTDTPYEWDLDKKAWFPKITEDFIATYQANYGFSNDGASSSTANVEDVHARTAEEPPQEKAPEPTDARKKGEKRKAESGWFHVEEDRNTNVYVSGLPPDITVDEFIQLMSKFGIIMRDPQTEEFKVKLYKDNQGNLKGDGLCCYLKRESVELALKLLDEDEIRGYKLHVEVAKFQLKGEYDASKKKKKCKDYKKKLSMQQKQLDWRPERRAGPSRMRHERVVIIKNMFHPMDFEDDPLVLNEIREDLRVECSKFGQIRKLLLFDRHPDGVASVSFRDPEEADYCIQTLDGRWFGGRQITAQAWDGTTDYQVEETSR

[3] = target: T2, GB1-Cus2, full length, with N-terminal His-tag and GB1 solubility tag (S. cerevisiae, UniProt P53830 1-285); assay: pull-down; GST-fusion protein or GST (100 µg) immobilised on glutathione agarose, GB1-Cus2 (500 µg in 500 µL) added for 30 min; 100 mM NaCl, 25 mM HEPES pH 7.4, 10% glycerol, 0.1% NP-40; six washes; SDS-PAGE, Coomassie; conditions: both partners purified
T2 construct: also called full-length Cus2 protein; not shown: GB1, N-terminal, kept
T2 sequence (looked up): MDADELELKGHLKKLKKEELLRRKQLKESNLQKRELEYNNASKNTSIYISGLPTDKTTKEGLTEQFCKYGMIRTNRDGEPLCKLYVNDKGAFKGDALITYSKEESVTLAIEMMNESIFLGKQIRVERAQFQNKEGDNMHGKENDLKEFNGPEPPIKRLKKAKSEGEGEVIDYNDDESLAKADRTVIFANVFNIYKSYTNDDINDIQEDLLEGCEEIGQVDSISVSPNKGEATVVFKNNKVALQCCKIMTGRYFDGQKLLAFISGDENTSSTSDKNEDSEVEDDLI

[4] = target: T3, Cus2 UHM (residues 177-269) (S. cerevisiae, UniProt P53830 177-269); assay: ITC; apparent; Cus2 or Tat-SF1 proteins titrated with Hsh155 ULM peptide (95-109); 50 mM NaCl, 25 mM HEPES pH 7.4, 0.2 mM TCEP; VP-ITC; three replicates; conditions: both partners purified
T3 construct: Expressed as a GST fusion from a pGEX-6p variant with a TEV cleavage site for the GST tag; also called isolated Cus2 UHM
T3 sequence (looked up): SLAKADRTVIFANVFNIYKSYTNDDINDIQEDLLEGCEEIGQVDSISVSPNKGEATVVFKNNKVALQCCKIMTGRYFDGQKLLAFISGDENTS

[5] = target: T4, Cus2, full length, with C-terminal His-tag (S. cerevisiae, UniProt P53830 1-285); assay: as above; conditions: both partners purified
T4 construct: also called full-length Cus2; recombinant wild-type Cus2
T4 sequence (looked up): T2 sequence (looked up)

Tat-SF1 (residues 1-360) [6] = target: T5, Tat-SF1 (residues 1-360) (human, UniProt O43719 1-360); assay: as above; conditions: both partners purified
T5 construct: lacks the divergent acidic C-terminal expansion; Expressed as a GST fusion from a pGEX-6p variant with a TEV cleavage site for the GST tag; also called recombinant Tat-SF1
T5 sequence (looked up): T1 chain

[7] = target: T6, Cus2 D204K with C-terminal His-tag (S. cerevisiae, UniProt P53830 1-285, D204K); assay: as above; conditions: both partners purified
T6 construct: also called D204K mutant Cus2; recombinant Cus2^D204K; source: expressed and purified the same as wild-type Cus2, at the University of California Berkeley QB3 MacroLab
T6 sequence (looked up): T2 sequence (looked up) with D204K

[8] = target: T7, Cus2, full length, fused to the GAL4 DNA-binding domain (S. cerevisiae, UniProt P53830 1-285); assay: cell-based or functional assay
T7 sequence (looked up): T2 sequence (looked up)

- Kd (Tat-SF1 (residues 1-360) [2]): 800 nM
B1: ULM5 (peptide)
chain: KRKSRWDETPASQMGGSTP

- binding result [3]: binds
B2: GST-Hsh155 (86-129) (domain or fragment, S. cerevisiae, UniProt P49955 86-129, looked up)
chain: ENTQDAVVPRKRKSRWDVKGYEPPDESSTAVKENSDSALVNVEG
notes: also called ^GSTHsh155^ULM; Hsh155^ULM

Continued, molecule first:

Molecule: Tat-SF1 (from UniProt O43719)
- Kd [1]: 800 nM

B3: Hsh155 ULM peptide (residues 95-109) (peptide, UniProt P49955 95-109, looked up)
peptide: RKRKSRWDVKGYEPP
notes: source: synthetic peptide, bought: Biomatik Corp. (98% purity)
- Kd [4]: 18 nM
- stoichiometry N [4]: ~1
- Kd [5]: 32 nM
- stoichiometry N [5]: ~1
- Kd (Tat-SF1 (residues 1-360) [6]): 229 nM
- stoichiometry N (Tat-SF1 (residues 1-360) [6]): ~1
- Kd [7]: 1020 nM
- stoichiometry N [7]: ~1

B4: SF3b1 ULM (protein)
chain: SQPPSKRKRRWDQTADQTPGATPKKLSSWDQAETPGHTPSLRWDETPGRAKGSETPGATPGSKIWDPTPSHTPAGAATPGRGDTPGHATPGHGGATSSARKNRWDETPKTERDTPGHGSGWAETPRTDRGGDSIGETPTPGASKRKSRWDETPAS
- Kd (Tat-SF1 (residues 1-360) [2]): 1800 nM

B5: Hsh155 R100D, W101A fused to the GAL4 activation domain (natural protein, S. cerevisiae, UniProt P49955 1-971, looked up)
chain: MSHPIQFVNANNSDKSHQLGGQYSIPQDLRENLQKEAARIGENEKDVLQEKMETRTVQNREDSYHKRRFDMKFEPDSDTQTVTSSENTQDAVVPRKRKSDADVKGYEPPDESSTAVKENSDSALVNVEGIHDLMFFKPSDHKYFADVISKKPIDELNKDEKKERTLSMLLLKIKNGNTASRRTSMRILTDKAVTFGPEMIFNRLLPILLDRSLEDQERHLMIKTIDRVLYQLGDLTKPYVHKILVVAAPLLIDEDPMVRSTGQEIITNLSTVAGLKTILTVMRPDIENEDEYVRNVTSRAAAVVAKALGVNQLLPFINAACHSRKSWKARHTGIKIVQQIGILLGIGVLNHLTGLMSCIKDCLMDDHVPVRIVTAHTLSTLAENSYPYGIEVFNVVLEPLWKGIRSHRGKVLSSFLKAVGSMIPLMDPEYAGYYTTEAMRIIRREFDSPDDEMKKTILLVLQKCSAVESITPKFLREEIAPEFFQKFWVRRVALDRPLNKVVTYTTVTLAKKLGCSYTIDKLLTPLRDEAEPFRTMAVHAVTRTVNLLGTADLDERLETRLIDALLIAFQEQTNSDSIIFKGFGAVTVSLDIRMKPFLAPIVSTILNHLKHKTPLVRQHAADLCAILIPVIKNCHEFEMLNKLNIILYESLGEVYPEVLGSIINAMYCITSVMDLDKLQPPINQILPTLTPILRNKHRKVEVNTIKFVGLIGKLAPTYAPPKEWMRICFELLELLKSTNKEIRRSANATFGFIAEAIGPHDVLVALLNNLKVQERQLRVCTAVAIGIVAKVCGPYNVLPVIMNEYTTPETNVQNGVLKAMSFMFEYIGNMSKDYIYFITPLLEDALTDRDLVHRQTASNVITHLALNCSGTGHEDAFIHLMNLLIPNIFETSPHAIMRILEGLEALSQALGPGLFMNYIWAGLFHPAKNVRKAFWRVYNNMYVMYQDAMVPFYPVTPDNNEEYIEELDLVL
- pre-mRNA coimmunoprecipitated with Lea1-TAP in the absence of ATP (ATP-independent pre-spliceosome formation) in Hsh155^RW-DA extract relative to wild-type extract [8]: ~11 fold
